Four molecules from patent US20220098266A1 (AKSTON BIOSCIENCES, published 2022) can be followed below.

As a reminder, the IC50 is the midpoint of a concentration-inhibition curve. Higher therefore signals a need for much substance.

The assay has as its target T1, human insulin receptor on human IM-9 cells (human, UniProt P06213 28-1382).
T1 construct: whole, on cells; The natural receptor is an alpha2-beta2 tetramer processed from one precursor; also called IR; human IR
As to the kind of experiment: flow cytometry competition with biotinylated RHI on IM-9 cells at 4 C. On the procedure: Cultures of IM-9 cells were centrifuged at 250×g (˜1000 rpm) for 10 min to pellet the cells. Cells were washed once with HBSS or PBS buffer, resuspended in cold FACS staining medium (HBSS/2 mM EDTA/0.1% Na-azide+4% horse serum) to a concentration of 8×10^6 cells/mL and kept on ice or 4° C. until test solutions were made. The insulin-Fc protein was diluted in FACS buffer in 1:3 serial dilutions as 2× concentrations in 1.2 mL tubes (approx. 60 μL volume of each dilution), and the solutions were kept cold on ice until ready for pipetting.
Biotinylated-RHI was diluted in FACS staining medium to a concentration of 1.25 μg/mL. 40 μL of the serially diluted test compound and 8 μL of 1.25 μg/mL Biotin-RHI were added into each well of a V bottom microtiter plate, mixed by slow vortexing, and placed on ice. 40 μL of an IM-9 cell suspension (8×10^6 cells/mL) was then added to each well by multichannel pipette, mixed again gently and incubated on ice for 30 min to allow competitive binding on the insulin receptor on IM-9 cells. Cells were then washed twice with […], of ice-cold FACS wash buffer (HBSS/2 mM EDTA/0.1% Na-azide+0.5% horse serum) by centrifuging the V-bottom plate at 3000 rpm for 3 min and aspirating the supernatant. Cells were then resuspended in […], of FACS staining medium containing 1:100 diluted Streptavidin-PE (Life Technologies) for 20 min on ice. Cells were then washed once with 275 μL of ice-cold FACS buffer and finally fixed with 3% paraformaldehyde for 10 min at room temp. Cells were then washed once with 275 μL of ice-cold FACS buffer and resuspended in 250 μl of FACS buffer for analysis.
The V-bottom plates containing cells were then analyzed on a Guava 8-HT flow cytometer (Millipore). Biotinylated-RHI binding to insulin receptor was quantitated by the median fluorescence intensity (MFI) of the cells on the FACS FL-2 channel for each concentration of the test compound. Control wells were labeled only with biotinylated-RHI and were used to calculate the percent (%) inhibition resulting from each test compound concentration. The % inhibition by test compounds of biotinylated-RHI binding on IM-9 cells was plotted against log concentrations of the test compound, and the resulting IC50 values were calculated using GraphPad Prism (GraphPad Software, La Jolla, Calif.) for the test compounds.
On the technique in general: In flow cytometry, cells or beads pass a laser one at a time.

Positions count from the first letter of the chain named.

T1 sequence (P06213 28-1382): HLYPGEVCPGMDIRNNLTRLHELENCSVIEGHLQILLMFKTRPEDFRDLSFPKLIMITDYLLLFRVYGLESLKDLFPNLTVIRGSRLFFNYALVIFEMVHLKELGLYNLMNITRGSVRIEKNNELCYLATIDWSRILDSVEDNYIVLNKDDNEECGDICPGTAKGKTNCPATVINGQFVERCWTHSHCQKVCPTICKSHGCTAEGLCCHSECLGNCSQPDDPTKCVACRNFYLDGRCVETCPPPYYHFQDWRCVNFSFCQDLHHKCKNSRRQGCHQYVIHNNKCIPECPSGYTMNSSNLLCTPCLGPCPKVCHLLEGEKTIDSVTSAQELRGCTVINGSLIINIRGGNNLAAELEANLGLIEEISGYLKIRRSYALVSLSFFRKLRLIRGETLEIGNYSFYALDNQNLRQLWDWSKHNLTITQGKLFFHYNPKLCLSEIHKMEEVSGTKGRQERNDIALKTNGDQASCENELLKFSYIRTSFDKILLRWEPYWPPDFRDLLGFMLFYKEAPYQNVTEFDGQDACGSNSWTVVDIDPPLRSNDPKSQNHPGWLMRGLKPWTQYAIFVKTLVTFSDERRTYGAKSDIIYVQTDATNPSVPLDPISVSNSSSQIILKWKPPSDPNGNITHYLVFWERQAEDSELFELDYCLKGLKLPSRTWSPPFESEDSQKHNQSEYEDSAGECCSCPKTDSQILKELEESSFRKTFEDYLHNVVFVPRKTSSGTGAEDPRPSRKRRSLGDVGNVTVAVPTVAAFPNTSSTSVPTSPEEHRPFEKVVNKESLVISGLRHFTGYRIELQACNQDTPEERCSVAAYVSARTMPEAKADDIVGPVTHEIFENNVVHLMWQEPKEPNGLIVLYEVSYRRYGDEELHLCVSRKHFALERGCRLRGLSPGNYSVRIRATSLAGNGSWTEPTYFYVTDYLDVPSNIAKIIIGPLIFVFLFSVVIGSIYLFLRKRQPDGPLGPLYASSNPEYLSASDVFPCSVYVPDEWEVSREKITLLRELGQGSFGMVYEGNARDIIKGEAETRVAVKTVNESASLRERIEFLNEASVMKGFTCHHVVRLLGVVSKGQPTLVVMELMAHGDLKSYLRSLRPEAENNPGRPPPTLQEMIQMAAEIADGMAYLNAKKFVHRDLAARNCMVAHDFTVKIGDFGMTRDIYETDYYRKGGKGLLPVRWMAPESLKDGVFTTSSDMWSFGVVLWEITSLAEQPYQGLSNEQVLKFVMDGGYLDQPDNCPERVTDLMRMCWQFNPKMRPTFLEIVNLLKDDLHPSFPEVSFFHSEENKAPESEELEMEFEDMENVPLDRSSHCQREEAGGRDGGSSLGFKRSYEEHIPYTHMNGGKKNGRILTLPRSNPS

B1: insulin-Fc fusion protein of SEQ ID NO: 24 (insulin polypeptide SEQ ID NO: 4, linker SEQ ID NO: 8, canine IgGB Fc fragment SEQ ID NO: 11) (Fc fusion)
chain: FVNQHLCGSDLVEALALVCGERGFFYTDPTGGGPRRGIVEQCCHSICSLYQLENYCNGGGGAGGGGDCPKCPAPEMLGGPSVFIFPPKPKDTLLIARTPEVTCVVVDLDPEDPEVQISWFVDGKQMQTAKTQPREEQFNGTYRVVSVLPIGHQDWLKGKQFTCKVNNKALPSPIERTISKARGQAHQPSVYVLPPSREELSKNTVSLTCLIKDFFPPDIDVEWQSNGQQEPESKYRTTPPQLDEDGSYFLYSKLSVDKSRWQRGDTFICAVMHEALHNHYTQESLSHSPG
notes: Made in HEK293 cells; Disulfide-linked homodimer, 93% homodimer; Glycosylated at cNg-NB139
With B1, the IC50 was 28 nM.

B2: insulin-Fc fusion protein of SEQ ID NO: 27 (SEQ ID NO: 24 with the mutation cNg-NB139-S; canine IgGB Fc fragment SEQ ID NO: 14) (Fc fusion)
chain: B1 chain with N139S
notes: Made in HEK293 cells; Non-glycosylated homodimer, 98.3% homodimer; also called cNg-S
For the molecule B2, the IC50 was found to be 145 nM.

B3: insulin-Fc fusion protein of SEQ ID NO: 20 (insulin polypeptide SEQ ID NO: 4, linker SEQ ID NO: 8, canine IgGA Fc fragment SEQ ID NO: 10) (Fc fusion)
chain: FVNQHLCGSDLVEALALVCGERGFFYTDPTGGGPRRGIVEQCCHSICSLYQLENYCNGGGGAGGGGRCTDTPPCPVPEPLGGPSVLIFPPKPKDILRITRTPEVTCVVLDLGREDPEVQISWFVDGKEVHTAKTQSREQQFNGTYRVVSVLPIEHQDWLTGKEFKCRVNHIDLPSPIERTISKARGRAHKPSVYVLPPSPKELSSSDTVSITCLIKDFYPPDIDVEWQSNGQQEPERKHRMTPPQLDEDGSYFLYSKLSVDKSRWQQGDPFTCAVMHETLQNHYTDLSLSHSPG
On to B3, for which the IC50 stood at 2730 nM.

B4: insulin-Fc fusion protein of SEQ ID NO: 29 (SEQ ID NO: 24 with des hinge D and the mutation cNg-NB138-K; canine IgGB Fc fragment SEQ ID NO: 15) (Fc fusion)
chain: FVNQHLCGSDLVEALALVCGERGFFYTDPTGGGPRRGIVEQCCHSICSLYQLENYCNGGGGAGGGGCPKCPAPEMLGGPSVFIFPPKPKDTLLIARTPEVTCVVVDLDPEDPEVQISWFVDGKQMQTAKTQPREEQFKGTYRVVSVLPIGHQDWLKGKQFTCKVNNKALPSPIERTISKARGQAHQPSVYVLPPSREELSKNTVSLTCLIKDFFPPDIDVEWQSNGQQEPESKYRTTPPQLDEDGSYFLYSKLSVDKSRWQRGDTFICAVMHEALHNHYTQESLSHSPG
notes: Made in HEK293 cells; Non-glycosylated homodimer, 98.1% homodimer; also called cNg-K
B4: the IC50 was found to be 147 nM. This IC50 is about 19-fold lower than that of the molecule before.
